Laboratory results from patent publication US20130089544A1 (AstraZeneca / MedImmune, published 2013).

Experiments:
[1] = molecular target: T1, human ErbB2, full length, on cells (human, UniProt P04626 23-1255); test: cell-based or functional assay
[2] = molecular target: T2, human ErbB2 ECD-myc/His fusion protein (human, UniProt P04626 23-652); test: limited antigen ELISA, 31 ng/ml ErbB2 ECD-myc/His coated, supernatant 1:25
T2 construct: Made in-house in 293T cells; also called hErbB2(ECD)/cMyc-His; huErbB2 (ECD)/c-myc-His; not shown: c-myc/His tag of the pSecTag2Hygro vector
Procedure: […] […] Antigen-coated plates were washed three times, blocked with 1% non-fat skim milk/PBS for at least 30 minutes at room temperature, and then washed again three times. Each hybridoma line sample was titrated in 1% non-fat skim-milk/PBS 1:3 for 7 points starting from a 1:25 dilution. […] The next day, plates were washed three times and incubated with 50 μl of 400 ng/ml immunopure Goat anti-human IgG (Fc)-HRP (Pierce catalog #31416) for 1 hour at room temperature. Then, the plates were extensively washed and pat dried on paper towel to remove residual HRP in wells. HRP substrate TMB (enhanced K-blue TMB, Neogen catalog #308177) was added to each well and incubated for 30 min. The reaction was stopped by addition of 1N HCl. Optical density at 450 nm was read on a microplate reader (Titerteck Multiskan Ascent).

[3] = molecular target: T1, human ErbB2, full length, on cells; test: cell-based or functional assay; remark: listed apart in the source
[4] = molecular target: T1, human ErbB2, full length, on cells; test: cell-based or functional assay; remark: listed apart in the source
[5] = molecular target: T2, human ErbB2 ECD-myc/His fusion protein; test: SPR, Biacore 2000 medium resolution; mAb captured on goat anti-human IgG, ErbB2(ECD)-cMyc/His injected; 1:1 fit
Procedure: The binding affinity of eight of the anti-ErbB2 antibodies was measured by medium resolution Biacore. All experiments were performed using a Biacore 2000 instrument.
First, 12 high-density goat α-human IgG antibody surfaces over three CM5 Biacore chips were prepared using routine amine coupling. […] Before each antigen injection cycle, each mAb was captured for six to nine seconds at a 100 μL/min flow rate. A 2-minute wash step followed each capture injection to stabilize each mAb baseline. […] All samples were randomly injected with several mAb capture/buffer inject cycles interspersed for double referencing. […] A flow rate of 100 μL/min. was used for all injection cycles. The data was fit to a 1:1 interaction model using CLAMP.

[6] = molecular target: T1, human ErbB2, full length, on cells; test: cell-based or functional assay; remark: listed apart in the source
[7] = molecular target: T1, human ErbB2, full length, on cells; test: cell-based or functional assay; remark: listed apart in the source
[8] = molecular target: T1, human ErbB2, full length, on cells; test: cell-based or functional assay; remark: listed apart in the source

B1: monoclonal antibody 1.14.1 (antibody, V domains shown)
VH: EVQLVESGGGLVKPGGSLRLSCAASGFTFSSYSMNWVRQAPGKGLEWVSSISSSSSYIYYADSVKGRFTISRDNAKNSLYLQMNSLRAEDTAVYYCARGGDGYNYYYFDYWGQGTLVTVSS
VL: DIVMTQSPDSLAVSLGERATITCKSSQSVFFRSNNKNCLTWYQQRPGQPPNLLIYWASTRESGVPDRFSGSGSGTDFTLTINNLQAEDVAVYYCQQYFGSPFTFGPGTKVDIK
notes: Fully human IgG (gamma/kappa) from a XenoMouse XM3B-3 hybridoma; constant regions not tied to it
Question: With B1 as the binder, how does the “EC50 (ng/ml) n1, inhibition of Heregulin-induced ErbB2 phosphorylation in MCF7 cells” value [1] read?
Answer: 33.7 ng/mL

Question: And the “EC50 (ng/ml) n2, inhibition of Heregulin-induced ErbB2 phosphorylation in MCF7 cells” value [1]?
Answer: 22.9 ng/mL

Question: And the “LA at 31 ng/ml (OD)” value [2]?
Answer: 3.99 OD 450 nm

Question: And the “% Inhibition @10 µg/ml, Heregulin-induced MCF7 cell proliferation” value [3]?
Answer: 96%

Question: And the “EC50 (ng/ml), inhibition of Heregulin-induced MCF7 cell proliferation” value [3]?
Answer: 640 ng/mL

Question: What about the “% Inhibition @10 µg/ml (n1), ErbB2 phosphorylation in BT474 cells at 48 hours” value [4] of the same binder?
Answer: 37%

Question: And the “% Inhibition @10 µg/ml (n2), ErbB2 phosphorylation in BT474 cells at 48 hours” value [4]?
Answer: 45%

Question: What about the Kd [5] of the same binder?
Answer: 2.5 nM

Question: What about the koff [5] of the same binder?
Answer: 0.000256 s⁻¹

Question: And the kon [5]?
Answer: 102000 M⁻¹ s⁻¹

Question: What about the “% inhibition @36 µg/ml, SKBR3 cell proliferation” value [6] of the same binder?
Answer: 52%

Question: And the “EC50 (ng/ml), inhibition of SKBR3 cell proliferation” value [6]?
Answer: 35.7 ng/mL

Question: And the “1 hr pTyr inhibition % (Heregulin-induced ErbB2 phosphorylation in MCF7 cells, hybridoma supernatant)” value [7]?
Answer: 103%

Question: And the “24 hr pTyr inhibition % (Heregulin-induced ErbB2 phosphorylation in MCF7 cells, hybridoma supernatant)” value [7]?
Answer: 100%

Question: What about the “N1 % Inhibition @40 µg/ml, BT474 cell proliferation” value [8] of the same binder?
Answer: 38%

Question: And the “N1 EC50 (ng/ml), inhibition of BT474 cell proliferation” value [8]?
Answer: 136 ng/mL

Question: And the “N2 % Inhibition @40 µg/ml, BT474 cell proliferation” value [8]?
Answer: 39%

Question: What about the “N2 EC50 (ng/ml), inhibition of BT474 cell proliferation” value [8] of the same binder?
Answer: 63 ng/mL

B2: monoclonal antibody 1.18.1 (antibody, V domains shown)
VH: EVQLVESGGGLVKPGGSLRLSCAASGFTFSSYSMNWVRQAPGKGLEWVSSISSSSSYIYYADSVKGRFTISRDNAKNSLYLQMNSLSAEDTAVYSCARGGDGYNYYYFDYWGQGTLVTVSS
VL: DIVMTQSPGSLVVSLGERATITCKSSQSVFFRSNNKNCLAWYQQRPGQSPNLLIYWASTRESGVPDRFSGSGSGTDFTLTISSLQAEDVAVYYCQQYFGSPFTFGPGTKVDIK
notes: as for B1
Question: Which “EC50 (ng/ml) n1, inhibition of Heregulin-induced ErbB2 phosphorylation in MCF7 cells” value [1] does the source give for B2 here?
Answer: 4.2 ng/mL

Question: And the “EC50 (ng/ml) n2, inhibition of Heregulin-induced ErbB2 phosphorylation in MCF7 cells” value [1]?
Answer: 10.8 ng/mL

Question: And the “LA at 31 ng/ml (OD)” value [2]?
Answer: 3.03 OD 450 nm

Question: And the “% Inhibition @10 µg/ml, Heregulin-induced MCF7 cell proliferation” value [3]?
Answer: 94%

Question: And the “EC50 (ng/ml), inhibition of Heregulin-induced MCF7 cell proliferation” value [3]?
Answer: 415 ng/mL

Question: What about the “% Inhibition @10 µg/ml (n1), ErbB2 phosphorylation in BT474 cells at 48 hours” value [4] of the same binder?
Answer: 24%

Question: And the “% Inhibition @10 µg/ml (n2), ErbB2 phosphorylation in BT474 cells at 48 hours” value [4]?
Answer: 33%

Question: What about the Kd [5] of the same binder?
Answer: 3 nM

Question: What about the koff [5] of the same binder?
Answer: 0.000302 s⁻¹

Question: And the kon [5]?
Answer: 100000 M⁻¹ s⁻¹

Question: What about the “% inhibition @36 µg/ml, SKBR3 cell proliferation” value [6] of the same binder?
Answer: 46%

Question: And the “EC50 (ng/ml), inhibition of SKBR3 cell proliferation” value [6]?
Answer: 26.3 ng/mL

Question: And the “1 hr pTyr inhibition % (Heregulin-induced ErbB2 phosphorylation in MCF7 cells, hybridoma supernatant)” value [7]?
Answer: 85%

Question: And the “24 hr pTyr inhibition % (Heregulin-induced ErbB2 phosphorylation in MCF7 cells, hybridoma supernatant)” value [7]?
Answer: 96%

Question: And the “N1 % Inhibition @40 µg/ml, BT474 cell proliferation” value [8]?
Answer: 34%

Question: And the “N1 EC50 (ng/ml), inhibition of BT474 cell proliferation” value [8]?
Answer: 38.1 ng/mL

Question: What about the “N2 % Inhibition @40 µg/ml, BT474 cell proliferation” value [8] of the same binder?
Answer: 39%

Question: And the “N2 EC50 (ng/ml), inhibition of BT474 cell proliferation” value [8]?
Answer: 28.2 ng/mL
